Experimental data: US20250313625A1 (ELPISCIENCE SUZHOU BIOPHARMA, published 2025)
Residue numbers refer to the chain shown, from its start. Names may count otherwise. Read-outs that look alike come from different tables or passages of the source.

T1: human LAG3 ECD recombinant protein (plate coated, tag not stated) (human, UniProt P18627 23-450)
T1 construct: extracellular domain
T1 sequence (looked up): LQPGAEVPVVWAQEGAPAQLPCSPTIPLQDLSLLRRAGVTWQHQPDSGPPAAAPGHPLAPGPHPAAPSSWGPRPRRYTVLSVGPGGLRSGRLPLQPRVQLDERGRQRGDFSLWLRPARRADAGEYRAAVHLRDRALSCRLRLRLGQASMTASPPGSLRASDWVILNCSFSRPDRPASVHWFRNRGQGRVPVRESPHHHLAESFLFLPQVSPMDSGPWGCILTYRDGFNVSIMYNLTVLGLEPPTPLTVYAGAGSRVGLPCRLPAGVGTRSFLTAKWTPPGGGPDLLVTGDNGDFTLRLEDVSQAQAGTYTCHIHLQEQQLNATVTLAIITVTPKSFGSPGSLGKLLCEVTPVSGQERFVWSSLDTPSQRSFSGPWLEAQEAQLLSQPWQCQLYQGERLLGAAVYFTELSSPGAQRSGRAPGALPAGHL

T2: human LAG3, full length, stably expressed on cells (human, UniProt P18627 23-525)
T2 construct: whole, on cells; also called CHOK1-human LAG3
T2 sequence (looked up): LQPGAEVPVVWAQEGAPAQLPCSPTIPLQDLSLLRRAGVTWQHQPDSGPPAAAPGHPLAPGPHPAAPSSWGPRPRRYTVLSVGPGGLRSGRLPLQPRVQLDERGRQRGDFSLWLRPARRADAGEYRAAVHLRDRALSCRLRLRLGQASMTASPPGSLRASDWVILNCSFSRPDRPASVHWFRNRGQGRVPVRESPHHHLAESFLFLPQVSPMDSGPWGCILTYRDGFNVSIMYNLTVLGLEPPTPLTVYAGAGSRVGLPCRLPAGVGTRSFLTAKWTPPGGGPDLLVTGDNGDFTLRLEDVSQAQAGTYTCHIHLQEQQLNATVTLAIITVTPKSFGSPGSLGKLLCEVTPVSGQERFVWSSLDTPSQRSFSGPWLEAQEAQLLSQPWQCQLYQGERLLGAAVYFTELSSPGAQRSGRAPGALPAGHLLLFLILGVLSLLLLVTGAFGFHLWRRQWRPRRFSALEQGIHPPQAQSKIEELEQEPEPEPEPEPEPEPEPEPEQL

T3: mFc tagged human LAG3 ECD recombinant protein (human, UniProt P18627 23-450)
T3 construct: extracellular domain; purchased from Biointron; not shown: mouse IgG Fc (mFc) tag
T3 sequence (looked up): T1 sequence (looked up)

T4: human LAG3 (form used in Octet, Biacore and HDX-MS not given) (human, UniProt P18627 23-450, limits assumed)
T4 sequence (looked up): T1 sequence (looked up)

T5: hFc tagged human LAG3 ECD recombinant protein (human, UniProt P18627 23-450)
T5 construct: range 23-450; also called biotin labelled hFc tagged human LAG3 ECD; not shown: human IgG Fc tag
T5 sequence (looked up): T1 sequence (looked up)

B1: 015c (antibody, human IgG4, V domains shown)
VH: EVQLQQSGPVLVKPGASVKLSCKASGFTFTDYYMNWVKLSHGKSLEWIGVINPFNGDTAYKQKFKGKATLTVDKSSSTAYMELNSLTSEDSAVYYCARDDGYYLYYFDSWGQGTTLTVSS
VL: DIQMTQSPSSLSASLGERVSLTCRASQDIGSRLNWLQQEPDGTIKRLIYATSSLDSGVPKRFSGSRSGSDYSLTISSLDSEDFVVYYCLQYASSPPTFGAGTKLELK
notes: human IgG4 S228P / kappa chimeric antibody; also called chimeric antibody 015; not shown: human kappa light chain constant region (pcDNA3.4-hIgGk vector)
B2: 035c (antibody, human IgG4, V domains shown)
VH: QVQLQQSGAELARPGASVKLSCKASGYSFTSYGINWVKQRTGQGLEWIGEIYPRSGNTYYNEKFKDKATLTADKSSSTAYMELRSLTSEDSAVYFCARGGTYDGYYYAMDFWGQGTSVTVSS
VL: DIVLTQSPASLAVSLGQRATISCRASESVDNFGSSFLHWYQQKPGQAPKLLIYRASNLESGIPARFSGSGSRTDFTLTINPVETDDVATYYCQQVNKDPRTFGGGTKLEIK
notes: human IgG4 S228P / kappa chimeric antibody; also called chimeric antibody 035; not shown: human kappa light chain constant region (pcDNA3.4-hIgGk vector)
B3: 057c (antibody, human IgG4, V domains shown)
VH: B2 VH with Y27F, F64L, D66G, K67E, K74R, F111Y
VL: B2 VL with D1N, L37M, S67G, R72G, N80D
notes: human IgG4 S228P / kappa chimeric antibody; also called chimeric antibody 057; not shown: human kappa light chain constant region (pcDNA3.4-hIgGk vector)
B4: 048c (antibody, human IgG4, V domains shown)
VH: EFQVQQSGPELVKPGASVKISCKASGYSFSDYNMNWLKQSTGKSLEWIGLVDPIYGTIRYNQKFKGKATLTVDQSSSTAYMQLNSLTSEDSAVYYCALITTSVRYFDYWGQGTTLTVSS
VL: DVLMTQTPLSLPVSLGDQASISCRSSQNIVHTDGNTYLEWYLQKPGQSPKLLIYKVSNRFSGVPDRFSGSGSGTDFTLKISRVEAEDLGVYYCFQGSHVPPTFGGGTKLEIK
notes: human IgG4 S228P / kappa chimeric antibody; also called chimeric antibody 048; not shown: human kappa light chain constant region (pcDNA3.4-hIgGk vector)
B5: 039c (antibody, human IgG4, V domains shown)
VH: EFQLQQSGPELVKPGASVKISCKASGYSFTDYNLNWVRQSNGKSLEWIGLVDPIYGTIRYNQNFKDKATLTVDQSSSTAYMQLNSLTSEDSAVYYCASIMTAVRYFDHWGQGTTLTVSS
VL: B4 VL with S10F, Q27L, T32S, R82G
notes: human IgG4 S228P / kappa chimeric antibody; also called chimeric antibody 039; not shown: human kappa light chain constant region (pcDNA3.4-hIgGk vector)
B6: TSR-033 (antibody, V domains shown)
VH: EVQLVQSGAEVKKPGATVKISCKASGFSIKDDYIHWVQQAPGKGLEWMGWIDAMNDDSQYSSKFQGRVTITVDTSTNTAYMKLSSLRSEDTAVYYCTYAFGGYWGQGTTVTVSS
VL: DIVMTQTPLSLSVTPGQPASISCRSSQSLVHSDSNTYLHWYLQKPGQSPQLLIYLVSNRFSGVPDRFSGSGSGTDFTLKISRVEAEDVGVYFCGQSTHVPYAFGGGTKVEIK
B7: hu023.07 (antibody, human IgG4, V domains shown)
VH: QVQLVQSGPEVKKPGASVKVSCKASGYTFTESPMNWVRQAPGQGFEWMGIIYTDTGEPTYAEEFKGRVTMTLDTSTSTVYMELSSLRSEDTAVYFCASDYGSILYWYFDVWGQGTLVTVSS
VL: DIQMTQSPSSLSASVGDRVTITCKASQDVSTAVAWYQQKPGKAPKLLIYSASYRYTGVPSRFSGSGSGTDFTLTISSLQPEDFATYYCQQHYNAPPTFGQGTKLEIK
notes: humanized from 023c
B8: hu023.10 (antibody, human IgG4, V domains shown)
VH: QVQLVQSGPELKKPGASVKVSCKASGYTFTESPMNWVRQAPGQGFEWMGIIYTDTGEPTYAEEFKGRFVFSLDTSVSTAYLQISSLKAEDTAVYFCVSDYGSILYWYFDVWGQGTLVTVSS
VL: B7 VL
notes: humanized from 023c
B9: 024c (antibody, human IgG4, V domains shown)
VH: EVQLQQSGPELVKPGASVKISCKASGYTFTDYYMNWVKQSHGKRLEWIGDIDPNNGGTSYNQKFKGKATLTVDKSSSSAYMDLRSLTSEDSAVYYCARAGSYYYGSSYVEYFDVWGTGTTVTVSS
VL: DIQMTQSPASLSASVGETVTITCRASGNIHNYLAWYQQKQGASPQLLVYNAKTLADGVPSRFSGSGSGTEFSLKINSLQPEDFGNYYCQHFWNTPYTFGGGTKLEIK
notes: human IgG4 S228P / kappa chimeric antibody; also called chimeric antibody 024; not shown: human kappa light chain constant region (pcDNA3.4-hIgGk vector)
B10: 033c (antibody, human IgG4, V domains shown)
VH: EVQLQQSGAELVRPGASVKLSCTASDFNIKDDYIHWVKQRPEQGLEWIGWIDLENGDTEYASKFQGKATITADTSSNTAYLQLSSLTSEDTAVYYCTTKGSHWGQGTLVTVSA
VL: DVVMTQIPLSLPVSLGDQASISCRSSQSLVYSNGNTYLNWYLQKPGQSPKLLIHKVSNRFSGVPDRFSGSGSGTDFTLKISRVEAEDLGVYFCSQSTHVPYTFGGGTKLEIR
notes: human IgG4 S228P / kappa chimeric antibody; also called chimeric antibody 033; not shown: human kappa light chain constant region (pcDNA3.4-hIgGk vector)

Tests used:
[1] = target: T1, human LAG3 ECD recombinant protein …; assay: competitive ELISA format I: His-FGL1 binding to coated LAG3 ECD
Description: (§1) After washing, HRP labeled anti-His 2nd antibody (Sigma) was added and incubated at 37° C. for 1 hour. Then, 100 μl/well of TMB solution (Biotechnology) was added. After incubation for 15 minutes at room temperature, the reaction was stopped by the addition of 50 μl of 1N HCl. OD 450 nm was read. […] After washing, HRP labeled anti-SA 2nd antibody (Sigma) was added and incubated at 37° C. for 1 hour. Then, 100 μl/well of TMB solution (Biotechnology) was added. After incubation for 15 minutes at room temperature, the reaction was stopped by the addition of 50 μl of 1N HCl. OD 450 nm was read. […] The competition assay of format III is a competitive FACS assay. […] After washing, dye labeled anti-His 2nd antibody (Sigma) was added and incubated at 37° C. for 1 hour. Fluorescence intensity was detected.

[2] = target: T2, human LAG3, full length, stably …; assay: FACS on 293F cells stably expressing human LAG3
Description: (§2) Briefly the antibodies were incubated with 2×10⁵ target cells at 4° C. for 1 hour. After washing, fluorescence labeled anti-mouse IgG 2nd antibody (Life Technologies) was added and incubated at 4° C. for 1 hour. Geometric median fluorescence intensity (MFI) was detected and EC₅₀ was calculated using GraphPad Prism9.0.
(§3) MFI was detected and EC₅₀ was calculated using GraphPad Prism9.0.

[3] = target: T3, mFc tagged human LAG3 ECD recombinant …; assay: competitive FACS: mFc-LAG3 ECD binding to Raji cells (MHC II)
Description: (§4) Activity of the purified chimeric antibodies to block LAG3 and MHC II interaction was determined by competitive FACS assay. […] After washing, dye labeled anti-mouse Fc 2nd antibody (Sigma) was added and incubated at 37° C. for 1 hour. Fluorescence intensity was detected.

[4] = target: T4, human LAG3 (form used in Octet, Biacore …); assay: BLI (Octet), 1:1 fit
Description: The purified chimeric antibodies were characterized for binding affinity against human LAG3 using Bio-Layer Interferometry technology (Octet system). The association and dissociation curves were fit with 1:1 binding model, and the Ka/Kd/KD values for each antibody were calculated.

[5] = target: T5, hFc tagged human LAG3 ECD recombinant …; assay: competitive ELISA format II: biotin hFc-LAG3 ECD binding to coated His-FGL1
Description: as §1

[6] = target: T4, human LAG3 (form used in Octet, Biacore …); assay: BLI (Octet)
[7] = target: T2, human LAG3, full length, stably …; assay: FACS on 293F cells stably expressing human LAG3; remark: listed apart in the source
Description: as §2, §3

[8] = target: T3, mFc tagged human LAG3 ECD recombinant …; assay: competitive FACS: mFc-LAG3 ECD binding to Raji cells (MHC II); remark: listed apart in the source
Description: as §4

Binder | Blocking ratio at 66.7 nM (%) [1] | EC50 [2] | TOP MFI [2] | IC50 [3] | TOP blocking (%) [3] | Kd [4] | koff [4] | kon [4] | IC50 [5] | TOP blocking (%) [5] | Kd [6] | koff [6] | kon [6] | EC50 [7] | TOP MFI [7] | IC50 [8] | TOP blocking (%) [8]
B1 | 43.6% | 1.9 nM | 296 | 5.4 nM | 77.1% | – | – | – | – | – | – | – | – | – | – | – | –
B2 | 24.3% | 1.3 nM | 333 | 4.3 nM | 95.9% | – | – | – | – | – | – | – | – | – | – | – | –
B3 | 33.3% | 1.4 nM | 337 | 2.5 nM | 95.1% | – | – | – | – | – | – | – | – | – | – | – | –
B4 | 41.2% | 1.3 nM | 289 | 4 nM | 64.6% | – | – | – | – | – | – | – | – | – | – | – | –
B5 | 40.2% | 1.3 nM | 302 | 4.7 nM | 62% | – | – | – | – | – | – | – | – | – | – | – | –
B6 | – | 2.6 nM | 247 | 12.4 nM | 96% | 2.72 nM | 0.000674 s⁻¹ | 248000 M⁻¹ s⁻¹ | – | – | – | – | – | – | – | – | –
B7 | – | – | – | – | – | – | – | – | 1.5 nM | 81.3% | 0.591 nM | 0.000153 s⁻¹ | 259000 M⁻¹ s⁻¹ | 0.32 nM | 2990 | 5.5 nM | 99.2%
B8 | – | – | – | – | – | – | – | – | 1.3 nM | 82.8% | 0.281 nM | 7.96e-05 s⁻¹ | 284000 M⁻¹ s⁻¹ | 0.2 nM | 3200 | 5.9 nM | 99.2%
B9 | 39.4% | 1.1 nM | 346 | 3.7 nM | 96.9% | – | – | – | – | – | – | – | – | – | – | – | –
B10 | 67.8% | 2.4 nM | 394 | 3.9 nM | 95% | – | – | – | – | – | – | – | – | – | – | – | –
